Measured values published in paper PMC9166362, “Early midcell localization of Escherichia coli PBP4 supports the function of peptidoglycan amidases” (PLoS Genetics, 2022).

Columns and labels:
[1] = target: LpoA, soluble (LpoAΔ1–27) (E. coli) (UniProt P45464); test: MST; one protein fluorescently labelled (NT-647 dye) at a fixed concentration, two-fold serial dilution of unlabelled ligand over 16 samples; 25 mM HEPES/NaOH, 150 mM NaCl, 0.05% Triton X-100, pH 7.5; Monolith NT.115; apparent KD
[2] = target: EnvC, soluble version without the N-terminal 34 amino acid signal peptide (E. coli) (UniProt P37690); test: as above
[3] = target: PBP4 (penicillin binding protein 4, DD-carboxy/endopeptidase), purified, untagged (E. coli) (UniProt P24228); test: AUC; sedimentation velocity, 45,000 rpm, 20°C, 25 mM HEPES/NaOH, 150 mM NaCl, pH 7.5, about 0.25 to 1.4 mg/ml; c(s) analysis
[4] = target: LpoA^N, N-terminal domain of LpoA (residues G28-T256) (E. coli) (UniProt P45464); test: MST; one protein fluorescently labelled (NT-647 dye) at a fixed concentration, two-fold serial dilution of unlabelled ligand over 16 samples; 25 mM HEPES/NaOH, 150 mM NaCl, 0.05% Triton X-100, pH 7.5; Monolith NT.115; apparent KD
[5] = target: PBP4ΔD3 (PBP4 lacking domain 3), His-tagged (E. coli) (UniProt P24228); test: AUC; sedimentation velocity, 45,000 rpm, 20°C, 25 mM HEPES/NaOH, 150 mM NaCl, pH 7.5, about 0.25 to 1.4 mg/ml; c(s) analysis
[6] = target: T1, PBP4 (penicillin binding protein 4, DD-carboxy/endopeptidase), purified, untagged (E. coli, UniProt P24228 61-477); test: MST
T1 chain: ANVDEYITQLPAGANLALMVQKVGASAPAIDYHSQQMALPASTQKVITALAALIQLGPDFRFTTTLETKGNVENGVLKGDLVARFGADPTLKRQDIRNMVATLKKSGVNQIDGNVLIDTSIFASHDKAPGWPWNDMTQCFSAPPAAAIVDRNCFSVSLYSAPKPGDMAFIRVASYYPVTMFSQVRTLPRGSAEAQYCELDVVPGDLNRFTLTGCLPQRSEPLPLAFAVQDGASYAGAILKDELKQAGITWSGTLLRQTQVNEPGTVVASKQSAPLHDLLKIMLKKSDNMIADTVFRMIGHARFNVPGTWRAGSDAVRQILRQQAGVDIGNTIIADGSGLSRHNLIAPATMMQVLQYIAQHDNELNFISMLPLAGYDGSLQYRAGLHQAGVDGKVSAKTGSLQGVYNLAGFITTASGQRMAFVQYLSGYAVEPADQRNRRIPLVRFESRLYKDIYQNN

[7] = target: T2, EnvC, soluble version without the N-terminal 34 amino acid signal peptide (E. coli, UniProt P37690 35-419); test: MST; one protein fluorescently labelled (NT-647 dye) at a fixed concentration, two-fold serial dilution of unlabelled ligand over 16 samples; 25 mM HEPES/NaOH, 150 mM NaCl, 0.05% Triton X-100, pH 7.5; Monolith NT.115; apparent KD; settings: both partners purified
T2 construct: EnvC of E. coli, soluble version without the N-terminal, 34 amino acid long, signal peptide; the text calls it full-length EnvC; In MST fluorescently labelled (Fl-EnvC) in some runs; also called full-length EnvC; Fl-EnvC; source: E. coli BL21(DE3) pET28a-His-EnvC, purified (HisTrap, thrombin, Superdex 200)
T2 sequence (looked up): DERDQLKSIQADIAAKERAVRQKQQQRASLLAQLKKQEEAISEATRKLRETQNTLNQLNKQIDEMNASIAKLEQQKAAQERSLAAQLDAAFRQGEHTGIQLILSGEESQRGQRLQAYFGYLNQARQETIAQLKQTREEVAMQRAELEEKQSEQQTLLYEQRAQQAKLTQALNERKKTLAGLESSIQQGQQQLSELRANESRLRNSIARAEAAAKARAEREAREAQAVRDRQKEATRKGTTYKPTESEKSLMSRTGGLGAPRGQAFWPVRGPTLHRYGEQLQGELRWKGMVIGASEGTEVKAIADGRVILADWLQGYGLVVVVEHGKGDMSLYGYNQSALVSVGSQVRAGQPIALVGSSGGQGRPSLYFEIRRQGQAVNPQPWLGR

[8] = target: T2, EnvC, soluble version without the …; test: pull-down; Ni-NTA beads; equimolar (1–2 μM) His-tagged and untagged proteins; 10 mM HEPES/NaOH, 10 mM MgCl2, 150 mM NaCl, 0.05% Triton X-100, pH 7.5, 4°C; washes with 30 mM imidazole; SDS-PAGE; His-NlpI also with PBP4 and EnvC together; settings: both partners purified
[9] = target: PBP4ΔD3 (PBP4 lacking domain 3), His-tagged (E. coli, UniProt P24228 21-477, PBP4Δ173–247 (domain 3)); test: MST

PBP4 (penicillin binding protein 4, DD-carboxy/endopeptidase), purified, untagged (from UniProt P24228 61-477) (enzyme)
Kd [1]: 315 nM | Kd [2]: 307 nM | stoichiometry N [3]: 2

PBP4ΔD3 (PBP4 lacking domain 3), His-tagged (from UniProt P24228 21-477) (enzyme)
Kd [1]: 153 nM | fold decrease of app. KD against PBP4 [4]: 50 fold | Kd [2]: > 5900 nM | stoichiometry N [5]: 2

B1: NlpI, soluble, as used in microscale thermophoresis (natural protein, E. coli, UniProt P0AFB1 19-294, looked up)
chain: CSNTSWRKSEVLAVPLQPTLQQEVILARMEQILASRALTDDERAQLLYERGVLYDSLGLRALARNDFSQALAIRPDMPEVFNYLGIYLTQAGNFDAAYEAFDSVLELDPTYNYAHLNRGIALYYGGRDKLAQDDLLAFYQDDPNDPFRSLWLYLAEQKLDEKQAKEVLKQHFEKSDKEQWGWNIVEFYLGNISEQTLMERLKADATDNTSLAEHLSETNFYLGKYYLSLGDLDSATALFKLAVANNVHNFVEHRYALLELSLLGQDQDDLAESDQQ
notes: NlpI, outer membrane lipoprotein of E. coli, 'Soluble NlpI construct'; In some MST runs fluorescently labelled (Fl-NlpI); also called Fl-NlpI; source: purified from overexpression strain according to published procedures [55]; (plasmid pET28a-His-NlpI)
Kd [6]: 177 nM | binding result [7]: binds

B2: His-NlpI (oligo-histidine tagged soluble NlpI) (natural protein, E. coli, UniProt P0AFB1 19-294, looked up)
chain: CSNTSWRKSEVLAVPLQPTLQQEVILARMEQILASRALTDDERAQLLYERGVLYDSLGLRALARNDFSQALAIRPDMPEVFNYLGIYLTQAGNFDAAYEAFDSVLELDPTYNYAHLNRGIALYYGGRDKLAQDDLLAFYQDDPNDPFRSLWLYLAEQKLDEKQAKEVLKQHFEKSDKEQWGWNIVEFYLGNISEQTLMERLKADATDNTSLAEHLSETNFYLGKYYLSLGDLDSATALFKLAVANNVHNFVEHRYALLELSLLGQDQDDLAESDQQ
notes: NlpI, outer membrane lipoprotein of E. coli, 'Soluble NlpI construct'; Bait on Ni-NTA beads; also called oligohistidine-tagged-NlpI; source: purified from overexpression strain according to published procedures [55]; (plasmid pET28a-His-NlpI); not shown: His, N-terminal, kept
binding result [8]: binds

B3: PBP1A, purified (full length His-PBP1A) (enzyme)
chain: MKFVKYFLILAVCCILLGAGSIYGLYRYIEPQLPDVATLKDVRLQIPMQIYSADGELIAQYGEKRRIPVTLDQIPPEMVKAFIATEDSRFYEHHGVDPVGIFRAASVALFSGHASQGASTITQQLARNFFLSPERTLMRKIKEVFLAIRIEQLLTKDEILELYLNKIYLGYRAYGVGAAAQVYFGKTVDQLTLNEMAVIAGLPKAPSTFNPLYSMDRAVARRNVVLSRMLDEGYITQQQFDQTRTEAINANYHAPEIAFSAPYLSEMVRQEMYNRYGESAYEDGYRIYTTITRKVQQAAQQAVRNNVLDYDMRHGYRGPANVLWKVGESAWDNNKITDTLKALPTYGPLLPAAVTSANPQQATAMLADGSTVALSMEGVRWARPYRSDTQQGPTPRKVTDVLQTGQQIWVRQVGDAWWLAQVPEVNSALVSINPQNGAVMALVGGFDFNQSKFNRATQALRQVGSNIKPFLYTAAMDKGLTLASMLNDVPISRWDASAGSDWQPKNSPPQYAGPIRLRQGLGQSKNVVMVRAMRAMGVDYAAEYLQRFGFPAQNIVHTESLALGSASFTPMQVARGYAVMANGGFLVDPWFISKIENDQGGVIFEAKPKVACPECDIPVIYGDTQKSNVLENNDVEDVAISREQQNVSVPMPQLEQANQALVAKTGAQEYAPHVINTPLAFLIKSALNTNIFGEPGWQGTGWRAGRDLQRRDIGGKTGTTNSSKDAWFSGYGPGVVTSVWIGFDDHRRNLGHTTASGAIKDQISGYEGGAKSAQPAWDAYMKAVLEGVPEQPLTPPPGIVTVNIDRSTGQLANGGNSREEYFIEGTQPTQQAVHEVGTTIIDNGEAQELF
Kd [6]: 67 nM | Kd [9]: 240 nM

B4: LpoA^C, C-terminal domain of LpoA (residues N257-S678) (domain or fragment)
chain: NKIALLLPLNGQAAVFGRTIQQGFEAAKNIGTQPVAAQVAAAPAADVAEQPQPQTVDGVASPAQASVSDLTGEQPAAQPVPVSAPATSTAAVSAPANPSAELKIYDTSSQPLSQILSQVQQDGASIVVGPLLKNNVEELLKSNTPLNVLALNQPENIENRVNICYFALSPEDEARDAARHIRDQGKQAPLVLIPRSSLGDRVANAFAQEWQKLGGGTVLQQKFGSTSELRAGVNGGSGIALTGSPITLRATTDSGMTTNNPTLQTTPTDDQFTNNGGRVDAVYIVATPGEIAFIKPMIAMRNGSQSGATLYASSRSAQGTAGPDFRLEMEGLQYSEIPMLAGGNLPLMQQALSAVNNDYSLARMYAMGVDAWSLANHFSQMRQVQGFEINGNTGSLTANPDCVINRNLSWLQYQQGQVVPVS
Kd [6]: 226 nM | Kd [9]: 315 nM

B5: LpoA^N, N-terminal domain of LpoA (residues G28-T256) (domain or fragment)
chain: GTHTPDQSTAYMQGTAQADSAFYLQQMQQSSDDTRINWQLLAIRALVKEGKTGQAVELFNQLPQELNDAQRREKTLLAVEIKLAQKDFAGAQNLLAKITPADLEQNQQARYWQAKIDASQGRPSIDLLRALIAQEPLLGAKEKQQNIDATWQALSSMTQEQANTLVINADENILQGWLDLQRVWFDNRNDPDMMKAGIADWQKRYPNNPGAKMLPTQLVNVKAFKPAST
Kd [6]: 954 nM | Kd [9]: 17 nM
